Measured values taken from patent US20260209285A1, “SWEET-TASTING PROTEIN BRAZZEIN MUTANT HAVING HIGH SWEETNESS AND PREPARATION METHOD THEREFOR” (NANJING BESTZYME BIO-ENGINEERING CO., LTD., priority 2022, published 2026).
Where a chain is given by its changes, count along the chain named. Like-named read-outs stand apart in the source and are kept apart here.

B1: ROLpro-BXT-D1: BXT-D1 expressed fused to leader peptide ROLpro, SEQ ID NO: 21; leader removed by cleavage (protein)
chain: DDNLVGGMTLDLPSDAPPISLSSSTNSAVALEKRDKCKKVYENYPVSKCQLANQCNYDCKLDKHARSGDCFYDAKRNLQCICDYCEY
modifications: ROLpro leader removed by cleavage
B2: ROLpro-BXT-D2: BXT-D2 expressed fused to leader peptide ROLpro, SEQ ID NO: 23; leader removed by cleavage (protein)
chain: B1 chain with A74D
modifications: ROLpro leader removed by cleavage
B3: ROLpro-BXT-D5: BXT-D5 expressed fused to leader peptide ROLpro, SEQ ID NO: 29; leader removed by cleavage (protein)
chain: B1 chain with H64R
modifications: ROLpro leader removed by cleavage
B4: ROLpro-BXT-D7: BXT-D7 expressed fused to leader peptide ROLpro, SEQ ID NO: 33; leader removed by cleavage (protein)
chain: B1 chain with H64R, A74R
modifications: ROLpro leader removed by cleavage
B5: ROLpro-BXT-D6: BXT-D6 expressed fused to leader peptide ROLpro, SEQ ID NO: 31; leader removed by cleavage (protein)
chain: B1 chain with H64R, A74K
modifications: ROLpro leader removed by cleavage
B6: ROLpro-BXT-D3: BXT-D3 expressed fused to leader peptide ROLpro, SEQ ID NO: 25; leader removed by cleavage (protein)
chain: B1 chain with A74K
modifications: ROLpro leader removed by cleavage
B7: ROLpro-BXT-D4: BXT-D4 expressed fused to leader peptide ROLpro, SEQ ID NO: 27; leader removed by cleavage (protein)
chain: B1 chain with A74R
modifications: ROLpro leader removed by cleavage
B8: ROLpro-BXT: Brazzein BXT expressed fused to Rhizopus oryzae lipase leader peptide ROLpro with kex2 site, SEQ ID NO: 19; leader removed by cleavage (protein)
chain: B1 chain with D69E, A74E
modifications: ROLpro leader removed by kex2 cleavage

How the values were obtained:
[1] = test system: healthy evaluators; conditions: 1% sucrose solution used as minimum concentration at which sweetness is felt; cited from earlier work
[2] = cited from earlier work; for sweetness relative to sucrose of the same weight: calculated by weight, prior art; for sweetness delay: prior art CN 102498126 A
[3] = test system: healthy evaluators; assay: Determination of sweetness threshold by human sensory evaluation; assay type: in vivo; conditions: for Sweetness fold relative to 1% sucrose: =10000/(sample sweetness threshold); for Concentration (μg/mL) corresponding to threshold: sweetness threshold, protein diluted with mineral water (pH 6.9), averaged for 10 individuals
Description: Since the recombinant Brazzein of the present disclosure is not a sugar-based compound, it is impossible to measure the sweetness by using a saccharometer. Therefore, the sweetness threshold is measured using human sensory evaluation. For most people, the sweetness threshold for sugar in soft drinks is 0.32%-1.0%. To assess the sweetness threshold for each solution, an 1% sucrose solution is used as the solution with minimum concentration at which sweetness is felt, i.e., the sweetness threshold is 10000 μg/mL The sweetness potency of the Brazzein described herein relative to sucrose is generally in a range of 1:500 to 1:16,000. The samples tested included naturally extracted Brazzein (homemade, about 95% pure), recombinant Brazzein and mutants thereof, sucrose and mineral water. The protein was diluted in a gradient from 0.5 to 20 μg/ml by diluting the dry protein powder with mineral water (pH 6.9). Ten healthy evaluators (five males and five females) aged between 30 and 50 participated in the assessment, five of whom were trained wine tasters. Tasting started at the lowest concentration, with concentration increased by 1 μg/ml each time until sweetness was felt; then based on this concentration, the concentration was reduced by 0.1 μg/ml at a time until sweetness was not felt; and the sweetness threshold of the sample was determined by gradually decreasing the concentration gradient in such a way. 20 ml of samples were tested randomly compared to sugar solutions. Before each analysis, the evaluator was asked to rinse his/her mouth with water and eat the neutral crackers until there was no residual taste. The test solution was held in oral cavity for at least 10 seconds. Thereafter, evaluators provided scores against samples on the basis of their responses between 0 and 10; 0—no sweet feeling, 10—highly sweet. The final results for each protein were averaged for 10 individuals. The sweetness factor of Brazzein and mutants thereof relative to 1% sucrose=10000/(sample sweetness threshold).

[4] = aqueous solution, 80° C. for 4 hours; cited from earlier work

Molecule | Sweetness fold relative to 1% sucrose [3] [fold] | Concentration (μg/mL) corresponding to threshold [3] [µg/mL] | other results
OC[C@H]1O[C@@](CO)(O[C@H]2O[C@H](CO)[C@@H](O)[C@H](O)[C@H]2O)[C@@H](O)[C@@H]1O [sucrose] | – | – | sweetness threshold of sucrose (reference) [1]: 10000 µg/mL
Brazzein | – | – | sweetness relative to sucrose of the same weight ([2]; listed as Brazzein expressed in an Aspergillus oryzae host in patent CN102498126A): 510 times; sweetness relative to sucrose of the same weight ([2]; listed as expressed Brazzein): about 510 times; sweetness delay [2]: about 1.5 seconds; sweetness delay ([2]; listed as expressed Brazzein): obvious sweetness delay
Brazzein (QDKCKKVYENYPVSKCQLANQCNYDCKLDKHARSGECFYDEKRNLQCICDYCEY; UniProt P56552 1-54, looked up) [Naturally extracted Brazzein, naturally extracted Brazzein (homemade, about 95% pure), reference compound] | 501 | 20 ± 3.9 | –
Brazzein [Brazzein expressed by Pichia pastoris] | – | – | sweetness relative to sucrose of the same weight [2]: 40 times
Brazzein [Brazzein] (DKCKKVYENYPVSKCQLANQCNYDCKLDKHARSGECFYDEKRNLQCICDYCEY; listed as Pentadiplandra brazzeana) [sweet protein extracted from fruits of Pentadiplandra brazzeana (Baillon), 54 amino acids, 6.5 kDa] | – | – | sweetness after heat treatment [4]: remains sweet
B1 | 6666.7 | 1.5 ± 0.3 | –
B2 | 3703.7 | 2.7 ± 0.5 | –
B3 | 8333.3 | 1.2 ± 0.2 | –
B4 | 16666.7 | 0.6 ± 0.1 | –
B5 | 16666.7 | 0.6 ± 0.1 | –
B6 | 6250 | 1.6 ± 0.3 | –
B7 | 8333.3 | 1.2 ± 0.2 | –
B8 | 613.5 | 16.3 ± 2.9 | –
